Blank lines part the entries; values can stand above or below the substance they belong to.
Columns and labels:
[1] = molecular target: human collagen type I (human) (UniProt P02452); assay: adherence of cells to collagen-coated plates, 30 minutes at 37° C.; not inhibited by anti-β1 integrin blocking antibody
[2] = molecular target: DDR1b (discoidin domain receptor 1, isoform b), full-length human, overexpressed in THP-1 cells (human) (UniProt Q08345); assay: cell-based or functional assay
Sequence of DDR1b (discoidin domain receptor 1, isoform b), full-length human, overexpressed in THP-1 cells (human) (Q08345 19-913, form in doubt): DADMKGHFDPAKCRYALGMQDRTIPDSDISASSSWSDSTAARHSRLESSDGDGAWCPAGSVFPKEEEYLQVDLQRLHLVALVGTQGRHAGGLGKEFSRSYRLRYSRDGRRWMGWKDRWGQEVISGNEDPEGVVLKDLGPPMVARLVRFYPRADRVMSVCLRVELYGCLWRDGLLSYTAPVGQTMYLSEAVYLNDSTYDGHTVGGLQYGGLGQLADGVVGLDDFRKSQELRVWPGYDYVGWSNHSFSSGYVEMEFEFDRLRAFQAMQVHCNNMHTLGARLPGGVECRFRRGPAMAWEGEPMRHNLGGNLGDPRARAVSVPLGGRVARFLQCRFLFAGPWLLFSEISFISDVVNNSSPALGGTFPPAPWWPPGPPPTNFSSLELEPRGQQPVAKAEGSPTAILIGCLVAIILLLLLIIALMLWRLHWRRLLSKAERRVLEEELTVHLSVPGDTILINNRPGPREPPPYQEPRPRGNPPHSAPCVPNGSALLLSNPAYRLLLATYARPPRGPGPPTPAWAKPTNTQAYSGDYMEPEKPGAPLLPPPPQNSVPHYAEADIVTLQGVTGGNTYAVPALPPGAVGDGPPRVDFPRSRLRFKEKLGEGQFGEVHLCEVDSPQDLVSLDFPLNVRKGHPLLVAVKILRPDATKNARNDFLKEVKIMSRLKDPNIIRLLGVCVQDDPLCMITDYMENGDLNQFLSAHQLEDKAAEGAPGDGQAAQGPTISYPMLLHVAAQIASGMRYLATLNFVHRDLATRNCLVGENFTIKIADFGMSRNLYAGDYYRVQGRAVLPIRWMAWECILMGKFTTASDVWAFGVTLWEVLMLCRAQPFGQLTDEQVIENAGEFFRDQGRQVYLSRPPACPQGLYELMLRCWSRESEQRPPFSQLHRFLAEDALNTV

Sequence of human collagen type I (human) (P02452 162-1218 limits assumed, chain 1 of 2): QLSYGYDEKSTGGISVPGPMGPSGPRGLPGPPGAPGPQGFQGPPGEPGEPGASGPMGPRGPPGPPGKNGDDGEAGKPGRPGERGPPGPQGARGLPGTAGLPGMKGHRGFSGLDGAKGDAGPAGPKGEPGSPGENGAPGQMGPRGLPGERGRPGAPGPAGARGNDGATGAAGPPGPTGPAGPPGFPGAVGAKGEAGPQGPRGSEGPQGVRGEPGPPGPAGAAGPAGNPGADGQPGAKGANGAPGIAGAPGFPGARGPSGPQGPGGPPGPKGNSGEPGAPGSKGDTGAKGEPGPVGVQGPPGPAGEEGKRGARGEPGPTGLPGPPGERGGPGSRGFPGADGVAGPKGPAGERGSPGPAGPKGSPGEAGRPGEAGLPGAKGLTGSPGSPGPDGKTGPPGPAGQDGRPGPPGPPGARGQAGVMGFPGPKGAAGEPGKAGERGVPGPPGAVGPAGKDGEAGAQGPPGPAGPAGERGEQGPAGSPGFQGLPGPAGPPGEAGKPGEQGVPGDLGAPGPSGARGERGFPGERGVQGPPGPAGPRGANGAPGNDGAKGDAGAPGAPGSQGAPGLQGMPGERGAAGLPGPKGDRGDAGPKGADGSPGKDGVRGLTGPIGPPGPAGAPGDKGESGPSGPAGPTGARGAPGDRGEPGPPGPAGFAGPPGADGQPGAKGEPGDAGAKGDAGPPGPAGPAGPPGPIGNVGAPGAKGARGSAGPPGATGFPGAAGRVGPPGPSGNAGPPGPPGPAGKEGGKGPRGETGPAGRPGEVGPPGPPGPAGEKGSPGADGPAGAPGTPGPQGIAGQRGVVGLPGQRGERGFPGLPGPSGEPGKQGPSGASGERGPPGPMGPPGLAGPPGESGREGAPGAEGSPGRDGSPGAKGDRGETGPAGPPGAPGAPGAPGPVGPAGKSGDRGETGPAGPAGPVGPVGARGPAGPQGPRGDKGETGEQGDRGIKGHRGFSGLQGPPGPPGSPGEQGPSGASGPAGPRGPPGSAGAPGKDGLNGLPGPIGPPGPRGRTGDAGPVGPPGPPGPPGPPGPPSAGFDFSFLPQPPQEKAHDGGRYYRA
Sequence of human collagen type I (human) (P08123 80-1119 limits assumed, chain 2 of 2, further chain): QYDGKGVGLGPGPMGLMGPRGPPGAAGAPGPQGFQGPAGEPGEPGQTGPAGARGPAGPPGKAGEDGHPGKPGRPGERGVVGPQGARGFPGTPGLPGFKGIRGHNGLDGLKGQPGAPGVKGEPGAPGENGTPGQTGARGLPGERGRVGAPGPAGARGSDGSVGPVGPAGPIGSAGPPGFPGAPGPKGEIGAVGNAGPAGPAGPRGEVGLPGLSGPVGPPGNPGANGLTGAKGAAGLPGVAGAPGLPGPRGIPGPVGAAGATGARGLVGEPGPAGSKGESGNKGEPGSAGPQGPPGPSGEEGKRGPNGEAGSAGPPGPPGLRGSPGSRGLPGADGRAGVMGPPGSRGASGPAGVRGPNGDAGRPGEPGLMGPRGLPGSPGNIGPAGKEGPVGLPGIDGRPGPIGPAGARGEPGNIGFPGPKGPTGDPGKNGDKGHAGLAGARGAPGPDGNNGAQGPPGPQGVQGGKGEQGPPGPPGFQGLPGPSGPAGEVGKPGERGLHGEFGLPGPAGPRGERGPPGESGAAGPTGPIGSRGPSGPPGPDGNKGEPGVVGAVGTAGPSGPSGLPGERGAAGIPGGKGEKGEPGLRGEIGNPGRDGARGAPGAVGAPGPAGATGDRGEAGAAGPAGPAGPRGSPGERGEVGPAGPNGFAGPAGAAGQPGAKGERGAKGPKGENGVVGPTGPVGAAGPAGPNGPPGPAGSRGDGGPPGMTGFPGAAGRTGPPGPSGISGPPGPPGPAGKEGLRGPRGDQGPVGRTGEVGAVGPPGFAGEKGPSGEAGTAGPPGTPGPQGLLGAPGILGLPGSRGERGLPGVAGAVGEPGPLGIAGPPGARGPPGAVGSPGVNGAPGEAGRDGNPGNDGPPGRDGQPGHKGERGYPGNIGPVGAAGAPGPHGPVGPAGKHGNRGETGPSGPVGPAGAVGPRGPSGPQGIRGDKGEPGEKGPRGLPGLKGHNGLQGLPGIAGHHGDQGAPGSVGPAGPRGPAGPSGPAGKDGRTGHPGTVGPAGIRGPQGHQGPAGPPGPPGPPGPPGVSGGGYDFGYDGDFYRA
Sequence of DDR1b (discoidin domain receptor 1, isoform b), full-length human, overexpressed in THP-1 cells (Q08345 19-913): as the sequence (Q08345 19-913, form in doubt) above

percent of total cells adherent (% of total cells) [1]: 62
Substance: DDR1a (discoidin domain receptor 1, isoform a), full-length human, overexpressed in THP-1 cells (from UniProt Q08345 19-913)

percent of total cells adherent (% of total cells) [1]: 62
Substance: DDR1b (discoidin domain receptor 1, isoform b), full-length human, overexpressed in THP-1 cells (from UniProt Q08345 19-913)

decrease in cell proliferation of PMA-treated THP-1 cells on collagen-coated plates [2]: 50%
Substance: bovine collagen type I (from UniProt P02453 162-1217; P02465 80-1117)

CD11c-positive cells at 24 hours on collagen-coated plates [2]: 53% | CD14-positive cells at 24 hours on collagen-coated plates [2]: 35% | CD40-positive cells at 24 hours on collagen-coated plates [2]: 19% | HLA-DR-positive cells, 12 hours on collagen-coated plates [2]: 10% | HLA-DR-positive cells, 24 hour incubation on collagen-coated plates [2]: 25% | HLA-DR-positive cells, 48 hour incubation on collagen-coated plates [2]: 70% | MCP-1 release into culture supernatant (ELISA) [2]: 7 fold
Substance: bovine collagen type I (from UniProt P02453 162-1217; P02465 80-1117) (ligand)

Source: patent US20050118170A1
